Patent US20050048060A1, “Immunoconjugates” (priority 2002, published 2005)

How the values were obtained:
[1] = tested on: LS 174T human adenocarcinoma cells; assay: In vitro cytotoxicity assay, [3H] thymidine incorporation, conjugate + CCM prodrug; conditions: cells blocked with unconjugated cAb-CEA5 0.1 mg/ml before conjugate
LS 174T tumor xenografts = assay: Conjugate localization (125I labeled conjugate biodistribution) in nude mice bearing LS 174T tumor xenografts; conditions: mouse, in vivo, iv, 1 mg/kg
Experimental: FIG. 4: Pharmacokinetics of cAb-CEA5::βL and the nonbinding control cAb-Lys3::βL in nude mice (three animals/group). βL conjugate levels in subcutaneous LS 174T colon carcinoma tumors and in normal tissues are shown at 6 hours, 24 hours and 48 hours post-administration. cAb-Lys3::βL served as nonbinding control.
Studies were undertaken in nude mice to establish the extent of cAb-CEA5::β-lactamase conjugate localization in LS 174T tumor xenografts. ^125I labeled cAb-CEA5::β-lactamase (4,728,481 cpm/μg conjugate) or cAb-Lys3::β-lactamase conjugate (2,691,621 cpm/μg conjugate) were injected i.v. (1 mg/kg) into mice (3 animals/group) that had subcutaneous LS 174T carcinoma tumors of about 0.5-1 cm diameter. The amount of radioactivity in the tumors, blood, and several other tissues was determined 6 hours, 24 hours and 48 hours later (FIG. 4). […] In order to see whether the radioactivity measured originated from intact conjugate molecules or degraded material, the enzymatic activity of β-lactamase in targeted tumor, liver and kidney tissue using nitrocefin was assessed. […]
The cAb-CEA::βL conjugate was radioiodinated with carrier-free ^125I using the IODOGEN reagent, following the manufacturer's (Pierce, Rockford, Ill., US) recommended method. […] The tumor, a sample of blood, and a range of other tissues were removed, weighed, and counted in a gamma counter.

[2] = design: species or system nude mice
Experimental: Studies were undertaken in nude mice to establish the extent of cAb-CEA5::β-lactamase conjugate localization in LS 174T tumor xenografts. ^125I labeled cAb-CEA5::β-lactamase (4,728,481 cpm/μg conjugate) or cAb-Lys3::β-lactamase conjugate (2,691,621 cpm/μg conjugate) were injected i.v. (1 mg/kg) into mice (3 animals/group) that had subcutaneous LS 174T carcinoma tumors of about 0.5-1 cm diameter. The amount of radioactivity in the tumors, blood, and several other tissues was determined 6 hours, 24 hours and 48 hours later (FIG. 4). […] A rather high accumulation of both cAb-CEA5::βL and cAb-Lys3::βL conjugates in the kidneys (0.41-0.53% ID/g tissue) was also noticed. In order to see whether the radioactivity measured originated from intact conjugate molecules or degraded material, the enzymatic activity of β-lactamase in targeted tumor, liver and kidney tissue using nitrocefin was assessed. […] The blood and normal tissue levels were still high at this time point and, thus, tumor/normal tissue ratios were low. After 24 hours, although the amounts of cAb-CEA::βL conjugate in the tumors had fallen to approximately 1% injected dose/g tumor, the blood and normal tissue levels had fallen more rapidly and, consequently, tumor/normal tissue ratios were in the 10-50 fold range, except for the kidneys where a high amount of radioactivity could still be measured.

LS 174T xenografts = assay: Anti-tumor effect of the prodrug therapy in nude mice with LS 174T xenografts; format: in vivo; conditions: conjugate 1 mg/kg i.v.
Experimental: FIG. 5: Therapeutic effect of cAb::βL/CCM combinations in nude mice with LS 174T xenografts. Conjugates (1 mg/kg) were injected i.v. on days indicated by the arrows, and CCM was administered 24 hours later. The therapeutic effects were compared to those of PDM at the MTD.
The anti-tumor effect of giving cAb-CEA::βL conjugate (1 mg/kg body weight) followed 24 hours later by escalating doses of CCM (100, 150, 200 mg/kg) are shown in FIG. 5. […] Therapeutic efficiency was dose-dependent.
Groups of five female athymic nude mice were injected subcutaneously with 2×10^6 LS 174T tumor cells. Ten days later when the tumors reached a size of about 100 mm^3, 1 mg/kg bodyweight of βL conjugates was injected i.v., followed 24 hours later by the prodrug CCM. Treatment with cAb-βL+CCM was carried out on a weekly schedule for a total of three rounds. The animals were monitored twice a week for general health, weight and tumor growth and compared to control groups receiving no treatment. Tumor volumes were calculated using the formula (longest length×perpendicular width^2)/2.

B1: cAb-CEA5-βL (protein)
chain: QVQLVESGGGSVQAGGSLRLSCAASGDTYGSYWMGWFRQAPGKEREGVAAINRGGGYTVYADSVKGRFTISRDTAKNTVYLQMNSLRPDDTADYYCAASGVLGGLHEDWFNYWGQGTQVTVSSAHHSEDPSSKAPKAPMGTPVSEKQLAEVVANTITPLMKAQSVPGMAVAVIYQGKPHYYTFGKADIAANKPVTPQTLFELGSISKTFTGVLGGDAIARGEISLDDAVTRYWPQLTGKQWQGIRMLDLATYTAGGLPLQVPDEVTDNASLLRFYQNWQPQWKPGTTRLYANASIGLFGALAVKPSGMPYEQAMTTRVLKPLKLDHTWINVPKAEEAHYAWGYRDGKAVRVSPGMLDAQAYGVKTNVQDMANWVMANMAPENVADASLKQGIALAQSRYWRIGSMYQGLGWEMLNWPVEANTVVEGSDSKVALAPLPVAEVNPPAPPVKASWVHKTGSTGGFGSYVAFIPEKQIGIVMLANTSYPNPARVEAAYHILEALQHHHHHH
prodrug CCM activation on cells saturated with unconjugated cAb-CEA5 [1]: activated CCM at marginal levels | amount of conjugate in the tumors (LS 174T tumor xenografts): approximately 1 % injected dose/g tumor | β-lactamase enzymatic activity in excised tumor tissue [2]: enzymatic activity was intact | β-lactamase enzymatic activity in kidney tissue [2]: no activity could be measured | β-lactamase enzymatic activity in liver tissue [2]: no activity could be measured | anti-tumor activity at 200 mg CCM/kg/injection (LS 174T xenografts; 24 hours later CCM 200 mg/kg/injection): Significant anti-tumor activity including partial regression of the tumors | anti-tumor effect of the prodrug therapy combination (LS 174T xenografts; 24 hours later CCM 100, 150, 200 mg/kg, weekly, three rounds, vs non-treated or cAb-Lys3::βL + CCM): significant anti-tumor effect
